Legend:
1VQO_U_ES-ferritin [1] = target: 1VQO_U_ES-ferritin (UniProt Q9ZLI1); test: native gel or EMSA; blue native (BN) PAGE of the purified nanoparticle, Coomassie blue staining
1VQO_U_ES-ferritin [2] = target: T1, 1VQO_U_ES-ferritin (UniProt Q9ZLI1); test: ELISA; HCV antigen coated on 96-well plates overnight at 4 °C; antibody added at a maximum of 2 μg/ml in a 5-fold dilution series, 1 h at RT; detected with peroxidase goat anti-human IgG, read at 450 nm; conditions: both partners purified
T1 construct: ferritin subunit beginning at Asp5; 24 copies on the particle; also called E1 nanoparticle antigen; source: HEK293F, transiently expressed, purified (Ni Sepharose excel, SEC); copies: 24

1VQO_U_ES-ferritin (from UniProt Q9ZLI1 5-167)
stoichiometry N (1VQO_U_ES-ferritin [1]): 24

B1: human neutralizing antibody IGH526 (antibody, V domains shown)
VH: VQLLEQSGAEVKRPGASVKVSCKASGYTFTSYAIHWVRQAPGQRLEWMGWINPGNGNAKYSQRFQGRVIISRDTSATTSYMELSSLTSEDTAVYSCARDRGFDLLTGHYLGLDPWGQGTLVTVSS
VL: ELTLTQPASASATPGQRVTISCSGSSSNIGGNTVNWYQHLPGAAPKLLIHNNDLRPSGVPDRFSGSKSGTSASLAVSGLQSEDEADYFCAAWDDGLNGWVFGGGTKLTVL
notes: Captured on anti-human Fc biosensors and detected with anti-human IgG, so it carried a human Fc in the assays; also called nAb IGH526
binding result (1VQO_U_ES-ferritin [2]): binds
